We go through seven substances from article PMC11587947.

What all share (test): turbidimetry of self-assembly
Experiment [1] addresses HIV-1 capsid protein CA mutant S178A (HIV-1 (strain BH10)).
The target of experiment [2] is HIV-1 capsid protein CA mutant V165A (HIV-1 (strain BH10)).
The target in experiment [3] is HIV-1 capsid protein CA mutant E45A (HIV-1 (strain BH10)).
Experiment [4] has as its target HIV-1 capsid protein CA mutant Q63A (HIV-1 (strain BH10)).
The target of experiment [5] is HIV-1 capsid protein CA mutant P38A (HIV-1 (strain BH10)).
For experiment [6], the target named is HIV-1 capsid protein CA mutant E180A (HIV-1 (strain BH10)).
The target of experiment [7] is HIV-1 capsid protein CA mutant Q192A (HIV-1 (strain BH10)).

As to “HIV-1 capsid protein CA mutant S178A (natural protein)”, in experiment [1], the growth rate constant kg relative to wt was 5.6 fold of wt.
On to “HIV-1 capsid protein CA mutant V165A (natural protein)”, for which, in experiment [2], the growth rate constant kg relative to wt is 28 fold of wt and the nucleation rate constant kn relative to wt is > 100 fold of wt.
Turning to “HIV-1 capsid protein CA mutant E45A (natural protein)”, the growth rate constant kg relative to wt in experiment [3] is 11.5 fold of wt.
For the substance “HIV-1 capsid protein CA mutant Q63A (natural protein)”, the growth rate constant kg relative to wt in experiment [4] is 0.6 fold of wt.
With “HIV-1 capsid protein CA mutant P38A (natural protein)”, the growth rate constant kg relative to wt in experiment [5] is 18.5 fold of wt.
Regarding “HIV-1 capsid protein CA mutant E180A (natural protein)”, the growth rate constant kg relative to wt in experiment [6] is 0.8 fold of wt.
Take “HIV-1 capsid protein CA mutant Q192A (natural protein)”: in experiment [7], the growth rate constant kg relative to wt is 2.7 fold of wt.
